The supplement of paper PMC10567573

B1: SLC19A2 (parent)
chain: IYPVWTYSYLVLLFPVFLATDYLR
B2: PTPRD (parent)
chain: LTKLREMGREKCHQYWPAERSARY

Variants of: B1
Test: protein stability index of a GFP-peptide fusion (GPS, HEK-293T) (PSI 1-6); higher = more stable
Conditions: c terminus: a fixed tail appended
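Further: lentivirally expressed fusions sorted by FACS into six bins by GFP to DsRed ratio, PSI derived from sequencing read proportions per bin multiplied by bin number.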

Variant | protein stability index
IYPVWTYSYLVLLFPVFLASDYLR | 2.33
IYPVWTYSYLVLLFPVFLAQDYLR | 3.01
IYPVWTYSYLVLLFPVFLALDYLR | 4.02
IYPVWTYSYLVLLFPVFLAEDYLR | 1.62
IYPVWTYSYLVLLFPVFLACDYLR | 2.53
IYPVWTYSYLVLLFPVFLAFDYLR | 2.44
IYPVWTYSYLVLLFPVFLAYDYLR | 1.95
IYPVWTYSYLVLLFPVFLAIDYLR | 4.41
IYPVWTYSYLVLLFPVFLAWDYLR | 1.93
IYPVWTYSYLVLLFPVFLAPDYLR | 3.55
IYPVWTYSYLVLLFPVFLATFYLR | 2.61
IYPVWTYSYLVLLFPVFLATSYLR | 2.09
IYPVWTYSYLVLLFPVFLATVYLR | 2.38
IYPVWTYSYLVLLFPVFLATWYLR | 2.24
IYPVWTYSYLVLLFPVFLATHYLR | 3.39
IYPVWTYSYLVLLFPVFLATCYLR | 2.36
IYPVWTYSYLVLLFPVFLATYYLR | 3.42
IYPVWTYSYLVLLFPVFLATGYLR | 2.73
IYPVWTYSYLVLLFPVFLATAYLR | 3.19
IYPVWTYSYLVLLFPVFLATTYLR | 2.75
IYPVWTYSYLVLLFPVFLATEYLR | 3.77
IYPVWTYSYLVLLFPVFLATRYLR | 2.67
IYPVWTYSYLVLLFPVFLATPYLR | 2.63
IYPVWTYSYLVLLFPVFLATNYLR | 2.65

Variant | protein stability index
IYPVWTYSYLVLLFPVFLATKYLR | 2.46
IYPVWTYSYLVLLFPVFLATDYLT | 1.69
IYPVWTYSYLVLLFPVFLATDYLQ | 3.46
IYPVWTYSYLVLLFPVFLATDYLE | 1.91
IYPVWTYSYLVLLFPVFLATDYLG | 2.58
IYPVWTYSYLVLLFPVFLATDYLL | 2.41
IYPVWTYSYLVLLFPVFLATDYLY | 2.75
IYPVWTYSYLVLLFPVFLATDYLD | 2.64
IYPVWTYSYLVLLFPVFLATDYLM | 2.99
IYPVWTYSYLVLLFPVFLATDYLI | 3.43
IYPVWTYSYLVLLFPVFLATDYLH | 2.63
IYPVWTYSYLVLLFPVFLATDYLN | 4.07
IYPVWTYSYLVLLFPVFLATDYLW | 3.24
IYPVWTYSYLVLLFPVFLATDYLK | 3.31
IYPVWTYSYLVLLFPVFLATDYLC | 1.84
IYPVWTYSYLVLLFPVFLATDYLS | 3.04
IYPVWTYSYLVLLFPVFLATDYLA | 2.61
IYPVWTYSYLVLLFPVFLATDYLP | 1.99
IYPVWTYSYLVLLFPVFLATDYLF | 3.56
IYPVWTYSYLVLLFPVFLATDFLR | 3.76
IYPVWTYSYLVLLFPVFLATDTLR | 2.68
IYPVWTYSYLVLLFPVFLATDSLR | 3.06
IYPVWTYSYLVLLFPVFLATDQLR | 1.98
IYPVWTYSYLVLLFPVFLATDPLR | 3.49

Variant | protein stability index
IYPVWTYSYLVLLFPVFLATDGLR | 1.66
IYPVWTYSYLVLLFPVFLATDWLR | 2.78
IYPVWTYSYLVLLFPVFLATDRLR | 1.75
IYPVWTYSYLVLLFPVFLATDDLR | 2.55
IYPVWTYSYLVLLFPVFLATDVLR | 2.6
IYPVWTYSYLVLLFPVFLATDELR | 2.71
IYPVWTYSYLVLLFPVFLATDKLR | 4.23
IYPVWTYSYLVLLFPVFLATDYMR | 3.02
IYPVWTYSYLVLLFPVFLATDYER | 2.68
IYPVWTYSYLVLLFPVFLATDYWR | 3.21
IYPVWTYSYLVLLFPVFLATDYRR | 3.03
IYPVWTYSYLVLLFPVFLATDYDR | 2.96
IYPVWTYSYLVLLFPVFLATDYAR | 3.57
IYPVWTYSYLVLLFPVFLATDYGR | 3.42
IYPVWTYSYLVLLFPVFLATDYHR | 2.11
IYPVWTYSYLVLLFPVFLATDYVR | 2.32
IYPVWTYSYLVLLFPVFLATDYKR | 2.22
IYPVWTYSYLVLLFPVFLATDYIR | 2.61
IYPVWTYSYLVLLFPVFLATDYTR | 2.48
IYPVWTYSYLVLLFPVFLATDYQR | 2.54
IYPVWTYSYLVLLFPVFLATDYSR | 2.62
IYPVWTYSYLVLLFPVFLATDYNR | 1.46

Variants of: B2
Test: as above
Conditions: c terminus: a fixed tail appended

Variant | protein stability index
LCKLREMGREKCHQYWPAERSARY | 1.82
LEKLREMGREKCHQYWPAERSARY | 3.03
LDKLREMGREKCHQYWPAERSARY | 2.83
LAKLREMGREKCHQYWPAERSARY | 2.69
LFKLREMGREKCHQYWPAERSARY | 1.96
YTKLREMGREKCHQYWPAERSARY | 2.21
TTKLREMGREKCHQYWPAERSARY | 2.86
CTKLREMGREKCHQYWPAERSARY | 2.42
VTKLREMGREKCHQYWPAERSARY | 2.39
ETKLREMGREKCHQYWPAERSARY | 3.12
PTKLREMGREKCHQYWPAERSARY | 2.66
QTKLREMGREKCHQYWPAERSARY | 2.87
GTKLREMGREKCHQYWPAERSARY | 2.47
NTKLREMGREKCHQYWPAERSARY | 3.1
DTKLREMGREKCHQYWPAERSARY | 3.59
MTKLREMGREKCHQYWPAERSARY | 2.95
KTKLREMGREKCHQYWPAERSARY | 3.36
STKLREMGREKCHQYWPAERSARY | 2.59
RTKLREMGREKCHQYWPAERSARY | 2.47
ITKLREMGREKCHQYWPAERSARY | 2.26
FTKLREMGREKCHQYWPAERSARY | 1.97
ATKLREMGREKCHQYWPAERSARY | 2.88
WTKLREMGREKCHQYWPAERSARY | 2.43
HTKLREMGREKCHQYWPAERSARY | 2.87
